Biological target: the molecule itself
Test: ThT fluorescence kinetics + AFM + TEM + Raman spectroscopy (amyloid fibril formation); self-association into amyloid fibrils starting from condensates; 30 µM protein in 50 mM Tris pH 7.5, 200 mM NaCl, 2 mM β-mercaptoethanol, 20 µM ThT, 384-well plates; re-scan confocal images after ~70 h

B1: hnRNPA1-A low-complexity domain (domain or fragment, UniProt P09651 186-250, looked up)
chain: MASASSSQRGRSGSGNFGGGRGGGFGGNDNFGRGGNFSGRGGFGGSRGGGGYGGSGDGYNGFGNDGSNFGGGGSYNDFGNYNNQSSNFGPMKGGNFGGRSSGPYGGGGQYFAKPRNQGGYGGSSSSSSYGSGRRF
notes: 15.2 kDa; The two stretches joined are the natural splice variant; also called A-LCD; hnRNPA1–A-LCD; source: E. coli BL21-Gold (DE3), purified (Ni-NTA, SEC on Superdex 75 in 8 M urea)
  binding result: binds

B2: hnRNPA1-B low-complexity domain (domain or fragment, UniProt P09651 186-372, looked up)
chain: MASASSSQRGRSGSGNFGGGRGGGFGGNDNFGRGGNFSGRGGFGGSRGGGGYGGSGDGYNGFGNDGGYGGGGPGYSGGSRGYGSGGQGYGNQGSGYGGSGSYDSYNNGGGGGFGGGSGSNFGGGGSYNDFGNYNNQSSNFGPMKGGNFGGRSSGPYGGGGQYFAKPRNQGGYGGSSSSSSYGSGRRF
notes: C-terminal low-complexity domain of heterogeneous nuclear ribonucleoprotein A1, splicing variant hnRNPA1-B (52 amino acids more than hnRNPA1-A); 19.8 kDa; also called B-LCD; hnRNPA1–B-LCD; source: E. coli BL21-Gold (DE3), purified (Ni-NTA, SEC on Superdex 75 in 2 M urea)
  binding result: binds

Reference: publication PMC10533390, “The interface of condensates of the hnRNPA1 low-complexity domain promotes formation of amyloid fibrils” (Nature Chemistry, 2023)
